Test results from US20190048080A1 (SHANGHAI KANDA BIOTECHNOLOGY, published 2019).

Biological target: T1, recombinant human CTLA-4-Fc fusion protein (R&D Systems) (human, UniProt P16410 37-162)
T1 construct: range 37-162; also called fusion protein CTLA-4/Fv; recombinant protein CTLA-4; not shown: IgG constant region (Fc) of the bought fusion protein
T1 sequence (looked up): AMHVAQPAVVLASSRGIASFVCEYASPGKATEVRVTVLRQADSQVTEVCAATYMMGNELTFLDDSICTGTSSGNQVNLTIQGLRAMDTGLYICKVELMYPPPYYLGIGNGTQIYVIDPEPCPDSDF
Assay: phage display panning on coated CTLA-4/Fc, then ELISA of purified scFv on coated recombinant CTLA-4

binding result: binds
B1: human anti-CTLA-4 single-chain variable region (scFv) antibody (scFv)
scFv: QVQLVQSGGGVVQPGRSLRLSCAASGFTFSSYGMHWVRQAPGKGLEWVAVIWYDGSRQYYADSVKGRFTISRDDSKNTMYLQMNSLRAEDTAVYYCARGGFWGAFDIWGQGTMVTVSSGSGGGGSDVVMTQSPGTLSLSPGEGATLSCRASQHVISSYLAWYQQKPGQAPRLLVYGASSRDTGVSDRFTGSGSGTDFTLTISRLEPEDSAVYFCQQYGTSPWTFGQGTKLEIKR
notes: also called anti-CTLA-4 scFv; CTLA-4scFv
